Laboratory results published in the supplement of paper PMC9170038.

System: MS2 coat protein
Assay: apparent KD of MS2 coat protein; designed switch direction (-1 OFF switch, 1 ON switch): -1; higher = weaker reporter binding
Method in brief: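 The reported apparent KD is a per-design median over clusters, from curve fits of normalised cluster fluorescence. Protein titrations used SNAP-549-labelled MS2 coat protein, doubled from 0.7 or 1.5 nM to 3 µM, in Tris-HCl pH 7.5 buffer with KCl, MgCl2, BSA, DTT, tRNA and Tween-20, with no input, 200 uM small-molecule ligand, or an oligonucleotide input. The RNA switches were transcribed on Illumina chips by stalled E. coli RNA polymerase.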

[1] = input ligand: microRNA oligo, concentration not stated
[2] = Eterna round: R95, input ligand: microRNA oligo, concentration not stated

“AACACAUGAGGAUAUACAUGAGGAUCACCCAUGUUGUCACUACACCCGGGUGCCUGGUGUAGAAGGCAUGAAGA [Eternabot (Original) Solution 30] (Eterna round: R97, puzzle: Exclusion 3)” was tested, and the “apparent KD of MS2 coat protein” value (input ligand: FMN 200 uM) was 71.2 nM and the “apparent KD of MS2 coat protein” value (input ligand: none) was 34.1 nM.
For “AACACUGCAGGAUAUACAUGAGGAUCACCCAUGUGAUCCGAUAACUCCCACGGGAGGAGUAGAAGGGUAAAAGG [Eternabot (Original) Solution 6] (Eterna round: R97, puzzle: Exclusion 3)”, the “apparent KD of MS2 coat protein” value (input ligand: FMN 200 uM) was 170 nM and the “apparent KD of MS2 coat protein” value (input ligand: none) was 264 nM.
With “AACAGCACAGGAUAUACAUGAGGAUCACCCAUGUGAGAAUUAAGUAGAUUGCCACAGAGUAGAAGGGUGCUGGA [Ruby 99] (Eterna round: R96, puzzle: Exclusion 3)” the “apparent KD of MS2 coat protein” value (input ligand: FMN 200 uM) was 88.9 nM, the “apparent KD of MS2 coat protein” value [1] was 36.4 nM and the “apparent KD of MS2 coat protein” value (input ligand: none) was 38.9 nM.
“AACAGCAGCUUUUUGCGCAACAUGAGGAUCACCCAUGUUGCAUGAGCAGCGUCGGGAGGUACCGGUUUCGUUUUGUC [Eternabot (L1) Solution 45] (Eterna round: R97, puzzle: Sensor, turn-off variant 1)” was tested, and the “apparent KD of MS2 coat protein” value (input ligand: FMN 200 uM) was 18.7 nM and the “apparent KD of MS2 coat protein” value (input ligand: none) was 18.1 nM.
“AACAGUCUAGAGGAUAUGCUGGAUAAAUAUCUGGCAGAAGGCUGGACAUGAGGAUCACCCAUGUAAAUACUACC [Omei Ex6 A1b] (Eterna round: R97, puzzle: Exclusion 6)” was tested, and the “apparent KD of MS2 coat protein” value (input ligand: FMN 200 uM) was 99.6 nM and the “apparent KD of MS2 coat protein” value (input ligand: none) was 38.6 nM.
For “AACAGUCUAGAGGAUAUGCUGGAUUAAUAUCUUGCAGAAGGCUGGACAUGAGGAUCACCCAUGUAAAUACUACC [Omei Ex6 A12] (Eterna round: R97, puzzle: Exclusion 6)”, the “apparent KD of MS2 coat protein” value (input ligand: FMN 200 uM) was 94 nM and the “apparent KD of MS2 coat protein” value (input ligand: none) was 31.9 nM.
With “AACAGUCUAGAGGAUAUGUUGGAUUAAUAUCUGGCAGAAGGCUGGACAUGAGGAUCACCCAUGUAAAUACUACC [Omei Ex6 A14] (Eterna round: R97, puzzle: Exclusion 6)” the “apparent KD of MS2 coat protein” value (input ligand: FMN 200 uM) was 98.7 nM and the “apparent KD of MS2 coat protein” value (input ligand: none) was 34.4 nM.
In the case of “AACAUACAUGAGGAUCACCCAUGUGAGGAUAUGAGAGUCAACUCGAGAGAGUUGAUUCUCAGAAGGCACAUAAA [JR_Ex1_Sub065] (Eterna round: R97, puzzle: Exclusion 1)”, the “apparent KD of MS2 coat protein” value (input ligand: FMN 200 uM) is reported as 226 nM and the “apparent KD of MS2 coat protein” value (input ligand: none) is reported as 67.5 nM.
In the case of “AACAUGAGGAUCACCCAUGUGAACCUCCUAAAAUACGACCGGUAGGAUAUACGAAAGAGCCGGAAGUAGAAGGACCGGUUAAAA [Esusale] (Eterna round: R96, puzzle: Exclusion NG 3)”, the “apparent KD of MS2 coat protein” value (input ligand: FMN 200 uM) is reported as 460 nM, the “apparent KD of MS2 coat protein” value [1] is reported as 96.1 nM and the “apparent KD of MS2 coat protein” value (input ligand: none) is reported as 158 nM.
In the case of “AACAUGGCAGAGGAUAUAGGACGCUGGCAUAAACUAGAAGGCUGCACAUGAGGAUCACCCAUGUGUUCCAAAAC [Atquisuson] (Eterna round: R97, puzzle: Exclusion 6)”, the “apparent KD of MS2 coat protein” value (input ligand: FMN 200 uM) is reported as 38.6 nM and the “apparent KD of MS2 coat protein” value (input ligand: none) is reported as 22.6 nM.
“AACAUGUCAGGAUAUGUGACAUGGCUCUUCGGAGCAAGAUCACAGAAGGGACAUGAGGAUCACCCAUGUCGAUC [Ex4-3: 28] (puzzle: Exclusion 4)” was tested, and the “apparent KD of MS2 coat protein” value [2] was 32.7 nM.
For “AACAUGUGAGGAUAUGUCACAUGGCUCUUCGGAGCAAGAUGACAGAAGGCACAUGAGGAUCACCCAUGUGCAUC [Ex4-3: 27] (puzzle: Exclusion 4)”, the “apparent KD of MS2 coat protein” value [2] was 11.6 nM.
In the case of “AACCAGCGAGGAUAUGCUUGCGCGUGUUCUAGUUGAAAUCGACUUGAGGAUCACCCAAGUAGAAGGCGCAGCCG [EX2 #48] (Eterna round: R97, puzzle: Exclusion 2)”, the “apparent KD of MS2 coat protein” value (input ligand: FMN 200 uM) is reported as 83.9 nM and the “apparent KD of MS2 coat protein” value (input ligand: none) is reported as 43.9 nM.
For “AACCAGCGAGGAUAUGCUUGCGCGUGUUCUGGUUAUAAUCGACUUGAGGAUCACCCAAGUAGAAGGCGCUGCCG [EX2 #52] (Eterna round: R97, puzzle: Exclusion 2)”, the “apparent KD of MS2 coat protein” value (input ligand: FMN 200 uM) was 179 nM and the “apparent KD of MS2 coat protein” value (input ligand: none) was 64.2 nM.
For “AACCAGCGAGGAUAUUGUCGGUACAACAUGAGGAUCACCCAUGUCACGUGAUCUUCCCAACAAGAAGGUGCACUAC [Axeedesza] (Eterna round: R97, puzzle: Exclusion 5)”, the “apparent KD of MS2 coat protein” value (input ligand: FMN 200 uM) was 324 nM and the “apparent KD of MS2 coat protein” value (input ligand: none) was 272 nM.
For “AACCAGCGAGGAUAUUGUUGGUAAAACAUGAGGAUCACCCAUGUCACGUGAUCUUCCCAACAAGAAGGUGCACUAA [Isrierin] (Eterna round: R97, puzzle: Exclusion 5)”, the “apparent KD of MS2 coat protein” value (input ligand: FMN 200 uM) was 183 nM and the “apparent KD of MS2 coat protein” value (input ligand: none) was 46.7 nM.
In the case of “AACCCAAUGGCAGGAUAUAGUAGACGACUCGGUCUAGAAGGGCCGCACAUGACAUGAGGAUCACCCAUGUUUCAUCUGAGGGAC [Eternabot solution 27] (Eterna round: R96, puzzle: Exclusion NG 1)”, the “apparent KD of MS2 coat protein” value (input ligand: FMN 200 uM) is reported as 14.1 nM, the “apparent KD of MS2 coat protein” value [1] is reported as 14 nM and the “apparent KD of MS2 coat protein” value (input ligand: none) is reported as 19.4 nM.
With “AACCCGUGUGUCAGGAUAUUGAGUCAGACUGGCUACAAGAAGGGACAUGAGGAUCACCCAUGUACUUAGAGAAA [BmEX4 B.22] (Eterna round: R97, puzzle: Brourd's mod of Exclusion 4)” the “apparent KD of MS2 coat protein” value (input ligand: FMN 200 uM) was 37.8 nM and the “apparent KD of MS2 coat protein” value (input ligand: none) was 17.9 nM.
In the case of “AACCCUCGUCAAGGAUAUACAUAGAAAAGCUUGGUAGAAGGUGACAUGAGGAUCACCCAUGUAUAAAGUUCGUCCAAUCGAACC [Diesisra] (Eterna round: R96, puzzle: Exclusion NG 1)”, the “apparent KD of MS2 coat protein” value (input ligand: FMN 200 uM) is reported as 139 nM, the “apparent KD of MS2 coat protein” value [1] is reported as 80.9 nM and the “apparent KD of MS2 coat protein” value (input ligand: none) is reported as 110 nM.
For “AACCCUCGUGUUAGGAUAUCCAGCGUCCGGGCGAGGGAGAAGGGACAUGAGGAUCACCCAUGUUUCGAUGGACA [Xeinesed] (Eterna round: R97, puzzle: Brourd's mod of Exclusion 4)”, the “apparent KD of MS2 coat protein” value (input ligand: FMN 200 uM) was 19.5 nM and the “apparent KD of MS2 coat protein” value (input ligand: none) was 19 nM.
In the case of “AACCGGGCGGCAGGAUAUCCAGAUUAAUUGUGGUAGUCCUGACAUGAGGAUCACCCAUGUGAAAAGGAGAAGGGCCGGAAAUUA [Onona] (Eterna round: R96, puzzle: Exclusion NG 2)”, the “apparent KD of MS2 coat protein” value (input ligand: FMN 200 uM) is reported as 437 nM, the “apparent KD of MS2 coat protein” value [1] is reported as 64.1 nM and the “apparent KD of MS2 coat protein” value (input ligand: none) is reported as 122 nM.
With “AACCUAUGAGGAUAUACAUGAGGAUCACCCAUGUGUGAGCGUAUCUCAUCACCAAAUUGUAGAAGGCAUGGCGG [Eternabot (L1) Solution 38] (Eterna round: R97, puzzle: Exclusion 3)” the “apparent KD of MS2 coat protein” value (input ligand: FMN 200 uM) was 68.3 nM and the “apparent KD of MS2 coat protein” value (input ligand: none) was 41.4 nM.
In the case of “AACCUGAGGCAAAGCUUUAGGUGUACAUGAGGAUCACCCAUGUAGGAUAUGGUAGGCUUUGCUUACCAGAAGGACAUUGGCGUA [Mat - Exclusion NG 3 - Mod of JL - D42] (Eterna round: R96, puzzle: Exclusion NG 3)”, the “apparent KD of MS2 coat protein” value (input ligand: FMN 200 uM) is reported as 345 nM, the “apparent KD of MS2 coat protein” value [1] is reported as 70.5 nM and the “apparent KD of MS2 coat protein” value (input ligand: none) is reported as 91.7 nM.
With “AACCUGAGGCUUUGCUUUAGGUCUACAUGAGGAUCACCCAUGUAGGAUAUGGUAGGCUUUGCUUACCAGAAGGACAUGGUAAUU [JL ENG3 1.13] (Eterna round: R96, puzzle: Exclusion NG 3)” the “apparent KD of MS2 coat protein” value (input ligand: FMN 200 uM) was 323 nM, the “apparent KD of MS2 coat protein” value [1] was 47.7 nM and the “apparent KD of MS2 coat protein” value (input ligand: none) was 65.5 nM.
With “AACCUGAGGCUUUGCUUUAGGUGAACAUGAGGAUCACCCAUGUAGGAUAUGGUAGGCUUUGCUUACCAGAAGGACAUAUUAAUU [JL ENG3 1.12] (Eterna round: R96, puzzle: Exclusion NG 3)” the “apparent KD of MS2 coat protein” value [1] was 30.6 nM.
With “AACCUGAGGCUUUGCUUUAGGUGUACAUGAGGAUCACCCAUGUAGGAUAUGGUAGGCAAAGCUUACCAGAAGGACAUUGGCGUA [Mat - Exclusion NG 3 - Mod of JL - D40] (Eterna round: R96, puzzle: Exclusion NG 3)” the “apparent KD of MS2 coat protein” value (input ligand: FMN 200 uM) was 342 nM, the “apparent KD of MS2 coat protein” value [1] was 94.7 nM and the “apparent KD of MS2 coat protein” value (input ligand: none) was 107 nM.
“AACCUGAGGCUUUGCUUUAGGUGUACAUGAGGAUCACCCAUGUAGGAUAUGGUAGGCUUUGCUUACCAGAAGGACAUUGGCGUA [Mat - Exclusion NG 3 - Mod of JL - D39] (Eterna round: R96, puzzle: Exclusion NG 3)” was tested, and the “apparent KD of MS2 coat protein” value (input ligand: FMN 200 uM) was 144 nM, the “apparent KD of MS2 coat protein” value [1] was 66.4 nM and the “apparent KD of MS2 coat protein” value (input ligand: none) was 77.2 nM.
“AACCUGAGGCUUUGCUUUAGGUUUACAUGAGGAUCACCCAUGUAGGAUAUGGUAGGCUUUGCUUACCAGAAGGACAUGUUAAUU [Mat - Exclusion NG 3 - Mod of JL - D26] (Eterna round: R96, puzzle: Exclusion NG 3)” was tested, and the “apparent KD of MS2 coat protein” value (input ligand: FMN 200 uM) was 241 nM, the “apparent KD of MS2 coat protein” value [1] was 25 nM and the “apparent KD of MS2 coat protein” value (input ligand: none) was 44.2 nM.
“AACGAGGCAGGAUAUACAUGAGGAUCACCCAUGUGCUUGCAUGGCGUGGGACGUCAACGUAGAAGGGCCAUGCC [EX3 #67] (Eterna round: R97, puzzle: Exclusion 3)” was tested, and the “apparent KD of MS2 coat protein” value (input ligand: FMN 200 uM) was 43.1 nM and the “apparent KD of MS2 coat protein” value (input ligand: none) was 45.6 nM.
With “AACGAUACGCUCAUAAGAACAUGAGGAUCACCCAUGUGUGGUGAGGAUAUCCACCCAGAGGGAAAGGAGAAGGUACCAGUGGGC [Ries] (Eterna round: R96, puzzle: Exclusion NG 3)” the “apparent KD of MS2 coat protein” value (input ligand: FMN 200 uM) was 31.3 nM, the “apparent KD of MS2 coat protein” value [1] was 61.8 nM and the “apparent KD of MS2 coat protein” value (input ligand: none) was 61 nM.
For “AACGAUCUAGGAUAUACAUGAGGAUCACCCAUGUAAGAGCCCAAACCAGGCUCCCUCUGUAGAAGGAGGUCAAA [Teleerre] (puzzle: Exclusion 3)”, the “apparent KD of MS2 coat protein” value [2] was 40.8 nM.
